Reference: US20230176070A1 (published 2023)

B1: G48 (VHH)
VHH: QVQLVESGGGLVQAGGSLRLSCAASGRTFSTLSMGWFRQAPGQGREFVGGINYDGSSVEYADSVKGRFTISRDNAKNMMYLQMNSLKPEDTAAYYCASSRGYNTGTNPLGYDVWGQGTQVTVSS
B2: G81 (VHH)
VHH: EVQLVESGGELVQAGGSLRLSCAASGRTDSVTRMAWFRQAPGKEREFVAAITWSSGYTYYPDSVKGRFTISRDNAKNTMYLQMNSLKAEDTAVYICAAAVGVISEYNSWGQGTQVTVSS
B3: G13 (VHH)
VHH: DVQLVESGGGVVQAGGSLRLSCAASGRTFSDYAMGWFRQAPGKEREFVAGVSWSGVDTYYADSVKGRFTISRDNAKNTLYVQMNSLKPEDTAVYYCAAQRYYHGHAKNMRYDYWGQGTQVTVSS
notes: also called G13(C3)
B4: G85 (VHH)
VHH: HVQLVESGGGLVQPGGSLRLSCAASGFTFSTYAMGWVRQAPGKGPEWVATIYSKGDTTHYANSAKGRFTISRDNARNTLYLQMNSLKPEDTAVYYCAKGISDSYLRVESNYRGQGTQVTVSS
B5: G6 (VHH)
VHH: QVQLVESGGGLVQAGGSLRLSCAASGRTISSYAMGWFRQAPGKERELVARITSSAGSTYYADSVKGRFTISRDNAKNTMYLQMNSLKPEDTAVYYCAVEIVRAQYDYWGQGTQVTVSS
B6: G36 (VHH)
VHH: QMGRNSAQVQLVESGGSLRLSCAASGFALSNSYMKWVRQAPGKGPEWVSTIYADGSTYYTDSVKGRFITSRDNSKNTMYLQMSDLKPEDTAVYYCANPSAKGQGTQVTVSS
B7: G82 (VHH)
VHH: HVQLVESGGGLVQAGGSLRLSCAASGKIFSLSTMGWYRQAPGKQRELVAALTSGGSTNYADSVKGRFTISRDNAKYTTYLQMNSLKPEDTAVYYCNVRYYSGYDGYESNSWGQGTQVTVSS
B8: G33 (VHH)
VHH: QMGRNSAEVQLVESGGSLRLSCSVSGGPFTSNGMGWYRQAPGKEREWVAAITNSGSANYADSVKGRFTVSMVNANNTMYLQMNNLKPDDTAVYYCNVAGWPHGYWGQGTQVTVSS
B9: G47 (VHH)
VHH: QVQLVESGGGLVQAGGSLRLSCAASERIFSNYAMGWFRQAPGKEREFVASIRGSGSQTSYADSVKGRFTISRDGAKDTVDLQMNSLKPEDTAVYYCSAKKYCGSTYNRAEGYDYWGQGTQVTVSS
B10: G72 (VHH)
VHH: QVQLVESGGGLVQPGGSLRLSCATSGSTFSINGIGWYRQVPGIEREFVAGVSTDGKANYADSVAGRFTISINDGKNTAYLQMNSLKPEDTAVYYCNVDSTKGYYWGQGTQVTVSS
B11: H1 (VHH)
VHH: QVQLVESGGGLVQPGGSLRLSCVASGIMFDIYTMRWYRQAPGKQRELVAAITGAGRANYNDDSVKGRFTISRDNAKNTVYLQMNRMKPEDTALYECNTEILGGGPNYWGRGTQVTVSE
B12: H24 (VHH)
VHH: QVQLVESGGGLVQAGGSLRLSCVSSGRTYRWNAMGWFRQAPGKEREFVAAIDWDGRNTDYADSVKGRFTISRDNAKNTVYLQMNSLKVEDTAIYYCAAREWGSGGYSSIASYAYWGQGTQVTVSS
B13: G32 (VHH)
VHH: QVQLVESGGGLVRAGDSLRLSCVVSGRPISSYAMAWFRQAPGKDREVVAGISANGDRTHYADSIKGRFTVSRDNAKNSMTLQMNKLKPEDTAVYYCAADSLTEGGYGLTGDFDYWGQGTQVTVSS
B14: G83 (VHH)
VHH: QVQLVESGGGLVQAGGSLRLSCAASRRTFSIYNMGWFRQAPGKEREFVATITRYGDRTYTADSVKGRFTISSDQAKNTVYLQMNSLNPHDTAVYYCAADSAYSGPDFKHYDYWGQGTQVTVSS
B15: G17 (VHH)
VHH: EVQLVESGGGLVQAGGSLRLSCAASGVTISYWVMGWFRQAPGKEREFVARISWGGERTYYADSVKGRFAISRDNAKNTVYLQMNSLNAEDTAVYYCAADRTGWGHSNSRSEYDYWGQGTQVTVSS
B16: G46 (VHH)
VHH: DVQLVESGGGLVQAGGSLRLSCAASGRTFSRYHMGWFRQAPGKERDVVAAISWSGDSTYYADSVKGRFTISKDNAKNTVYLQMDNLKPEDTAVYYCNVRGGVLRPYDYWGQGTQVTVSS
B17: G22 (VHH)
VHH: QVQLVESGGGSVQAGGSLRLSCAASGRTFSSYSMAWFRQAPGKEREFVAVMNCRYGDTDYPDSVKGRFTMSRDNAKNTLYLQMNSLKPEDTAVYYCAAKLIAYCGSGYYYRRNDYGYWGQGTQVTVSS
B18: G87 (VHH)
VHH: EVQLVESGGGLVQAGDSLRLSCAASGRTFSSYNLGWFRQAPGKEREFVAVMNCRYGDTDYPDSVKGRFTMSRDNAKNTLYLEMNNLKPEDTAVYYCAAKVLAYCGSGYYYRRNDYGYWGQGTQVTVSS
B19: G2 (VHH)
VHH: EVQLVESGGDLVQAGGSLRLSCSASGNIFKINDMGWYRQAPGKQRELVARISSSGNTNYADSVKGRFTISRDNGKNTVYLQMNRVKPEDTAVYYCNADVQVSRNYEYEYWGQGTQVTVSS
B20: G9 (VHH)
VHH: DVQLVESGGGLVQPGGSLRLSCAASGLTLDNYDMAWFRQAPGKEREFVTAINYVGGRTYADSVRGRFTISRDDTKNTVYLQMNSLKPEDTAVYYCAAGLQYGITSLRTRNYNYWGQGTQVTVSS
B21: G76 (VHH)
VHH: QVQLVESGGGLVQPGGSLRLSCVVSGFPFSEYAMSWVRQTPEKGREWVSGIYTDGSETLYENSVKGRFTISRDNTKNTLYLQMNNLKPEDTARYYCKLGDPYGVGLRDYEYLGHGTQVTVSS
B22: G5 (VHH)
VHH: EVQLVESGGGVVQPGGSLTLSCAASGFAFRNYAMSWVRQAPGKGPEWVSQINGRGGYTSYADSVKGRFTISRDNTKNTLYLQMNNLKPDDTAVYYCAKDPTQLRWIPVPNYILGSTKGQGTQVTVSS
B23: G95 (VHH)
VHH: HVQLVESGGGLVQAGGSLRLSCAASGRTFSSYAMAWFRQAVGKEREFVAAVSRSGTNLYYADSVKGRFTISRDTAKNTMYLQMNSLKPEDTALYYCAAGEALRWGIGQQPRSEFFDYWGQGTQVTVSS
notes: also called G95(C2)
B24: G29 (VHH)
VHH: QVQLVESGGGLVQAGDSLLLSCGTSGRTFSSNTMGWFRQAPGKGREFVATITASGRGTNYGDSVRGRFTISRDNDKNTVYLQMNNLKPDDTGVYTCAASDSPYGSRWIEAYGYWGQGTQVTVSS
B25: G34 (VHH)
VHH: QVQLVESGGGLVQAGDSLRLSCAASGRTFSRYAMAWFRQAPGKEREFVAGISWTGRFTYYADSVKGRFTISRDDAKNTVYLQMNNLKPEDTGLYFCKVGDPYGVGLREYEWWGPGTQVTVSS
B26: G38 (VHH)
VHH: EVQLVESGGGLVQAGGSLRLSCVASGHTDCISGMGWYRQAPGKERELVAVLIGGGNTYYGDSVKGRFTISKDKAKNTLYLQMKTLKPEDMAVYYCTADDHGSECPNKEMSSTATYWGQGTQVTVSS
B27: H15 (VHH)
VHH: QVQLVESGGGLVQAGDSLRLSCAASERTSNYAMGWFRQAPGKEREFVADINHTGGRRKYGDSVKGRFTISRDNAENMVYLQMNNLQVEDTAVYYCATGLRYDVSGYAPDYRYWGRGTQVTVSS
B28: G7 (VHH)
VHH: QVQLVESGGGLVQPGDSLRLSCAVSGQYVNMAAMGWFRQAPGKEREFVAGISWSDDTDIADSVKGRFTISRDHGKNTVDLQMNSLKPEDTGVYLCAGRFRRLAKDFGEYDYWGQGTQVTVSS

Tests used:
[1] = target: T1, glutathione S-transferase (UniProt P08515 1-218 = GST); assay: SPR, GST immobilised;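 also: nanobody analytes injected as dilution series over three orders of magnitude across antigen on a CM5 chip, kinetics fitted by 1:1 Langmuir model, optionally with mass transfer, duplicate runs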
T1 construct: Expressed in E. coli, purified on GSH resin; also called GST
T1 sequence (P08515 whole entry): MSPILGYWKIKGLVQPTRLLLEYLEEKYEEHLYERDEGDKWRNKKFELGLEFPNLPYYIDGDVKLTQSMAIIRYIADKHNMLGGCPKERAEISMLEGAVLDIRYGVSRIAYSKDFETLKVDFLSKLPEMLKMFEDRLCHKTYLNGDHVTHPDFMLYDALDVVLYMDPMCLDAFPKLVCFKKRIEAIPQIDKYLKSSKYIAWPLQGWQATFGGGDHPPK
Experimental: Nb affinity measurement by SPR. Surface plasmon resonance (SPR, Biacore 3000 system, GE Healthcare) was used to measure Nb affinities. Antigen proteins immobilized on the activated CM5 sensor-chip by the following steps. Protein analytes were diluted to 10-30 μg/ml in 10 mM sodium acetate, pH 4.5, and were injected into the SPR system at 5 μl/min for 420 s. The surface of the sensor was then blocked by 1 M ethanolamine-HCl (pH 8.5). For each Nb analyte, a series of dilution (spanning three orders of magnitude) was injected in HBS-EP+ running buffer (GE-Healthcare) containing 2 mM DTT, at a flow rate of 20-30 μl/min for 120-180 s, followed by a dissociation time of 5-20 mins based on dissociation rate. Between each injection, the sensor chip surface was regenerated with the low pH buffer containing 10 mM glycine-HCl (pH 1.5-2.5), or high pH buffer of 20-40 mM NaOH (pH 12-13). The regeneration was performed with a flow rate of 40-50 μl/min for 30 s. The measurements were duplicated and only highly reproducible data was used for analysis. Binding sensorgrams for each Nb were processed and analyzed using BIAevaluation by fitting with 1:1 Langmuir model or 1:1 Langmuir model with mass transfer.

[2] = target: T1, glutathione S-transferase; assay: indirect ELISA, GST coated;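 also: nanobody dilution series starting at 10 µM binding plate-bound antigen, HRP anti-His or anti-T7 tag detection, TMB absorbance at 450 nm, logIC50 from four-parameter logistic fit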
Experimental: (§1) Indirect ELISA was carried out to evaluate the camelid immune response of an antigen and to quantify the relative affinities of antigen-specific Nbs. An antigen was coated onto a 96-well ELISA plate (R&D system) at an amount of approximately 1-10 ng per well in a coating buffer (15 mM sodium carbonate, 35 mM sodium bicarbonate, pH 9.6) overnight at 4° C. The well surface was then blocked with a blocking buffer (DPBS, 0.05% Tween 20, 5% milk) at room temperature for 2 hours. To test an immune response, the immunized serum was serially 5-fold diluted in the blocking buffer. The diluted sera were incubated with the antigen coated wells at room temperature for 2 hours. HRP-conjugated secondary antibodies against llama Fc (Bethyl) were diluted 1:10,000 in the blocking buffer and incubated with each well for 1 hour at room temperature. […] Nbs of both specific binders for test and scramble negative controls were serially 10-fold diluted from 10 μM to 1 μM in the blocking buffer. HRP-conjugated secondary antibodies against His-tag (Genscript) or T7-tag (Thermo) were diluted 1:5,000 or 1:10,000 in the blocking buffer and incubated for 1 hour at room temperature. Three washes with 1x PBST (DPBS, 0.05% Tween 20) were carried out to remove nonspecific absorbance between incubations. After the final wash, the samples were further incubated under dark with freshly prepared w3,3′,5,5′-Tetramethylbenzidine (TMB) substrate for 10 mins at room temperature to develop the signals. After the STOP solution (R&D system), the plates were read at multiple wavelengths (450 nm and 550 nm) on a plate reader (Multiskan GO, Thermo Fisher). A false positive Nb binder was defined if any of the following two criteria was met: i) the ELISA signal can only be detected at a concentration of 10 μM and was under detected at 1 μM concentration. ii) At 1 μM concentration, a pronounced signal decrease (by more than 10-fold) was detected compared to the signal at 10 μM, while there were no signals can be detected at lower concentrations. The raw data was processed by Prism 7 (GraphPad) to fit into a 4PL curve and to calculate logIC50.

human serum albumin = target: T2, human serum albumin (human, UniProt P02768 25-609); assay: indirect ELISA, HSA coated
T2 construct: In the mutant screen wild type HSA came from medium of transfected HeLa cells; also called HSA; wild type HSA
T2 sequence (P02768 25-609 limits assumed): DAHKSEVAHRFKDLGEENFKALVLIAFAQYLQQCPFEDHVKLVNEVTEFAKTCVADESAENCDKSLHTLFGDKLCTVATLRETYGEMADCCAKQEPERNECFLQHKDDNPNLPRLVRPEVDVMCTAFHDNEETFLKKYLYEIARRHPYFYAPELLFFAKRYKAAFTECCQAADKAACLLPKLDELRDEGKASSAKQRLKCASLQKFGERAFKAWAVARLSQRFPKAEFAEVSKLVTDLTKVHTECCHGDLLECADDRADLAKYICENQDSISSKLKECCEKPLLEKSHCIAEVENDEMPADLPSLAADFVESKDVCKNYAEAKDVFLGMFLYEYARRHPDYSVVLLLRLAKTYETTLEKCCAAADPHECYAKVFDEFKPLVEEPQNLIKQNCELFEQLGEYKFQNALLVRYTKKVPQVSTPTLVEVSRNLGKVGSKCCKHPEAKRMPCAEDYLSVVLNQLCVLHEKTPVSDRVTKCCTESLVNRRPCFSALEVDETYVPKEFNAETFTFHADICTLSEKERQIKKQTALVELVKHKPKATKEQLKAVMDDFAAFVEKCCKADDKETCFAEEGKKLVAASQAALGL
Experimental: as §1

Binder | Kd [1] [nM] | koff [1] [s⁻¹] | kon [1] [M⁻¹ s⁻¹] | ELISA affinity (LogIC50 (oD450nm)) [2] | binding result [2] | further results
B1 | 126 | 0.000753 | 5930 | 1.6 |  | 
B2 |  |  |  |  | no binding (tested: Nb titrated from 10 µM) | 
B3 | 0.36 | 0.00017 | 474000 | 6.74 |  | 
B4 |  |  |  |  | no binding (tested: Nb titrated from 10 µM) | 
B5 |  |  |  |  | no binding (tested: Nb titrated from 10 µM) | 
B6 |  |  |  |  | no binding (tested: Nb titrated from 10 µM) | 
B7 | 0.504 | 0.000561 | 1.11e+06 | 7.22 |  | 
B8 |  |  |  |  | no binding (tested: Nb titrated from 10 µM) | 
B9 | 32.4 | 0.0127 | 391000 | 3.86 |  | 
B10 |  |  |  |  | no binding (tested: Nb titrated from 10 µM) | 
B11 |  |  |  |  |  | ELISA affinity (LogIC50 (oD450nm)) (human serum albumin): 4.92
B12 |  |  |  |  |  | binding result (human serum albumin): no binding (tested: Nb titrated from 10 µM)
B13 |  |  |  |  | no binding (tested: Nb titrated from 10 µM) | 
B14 | 0.761 | 0.000751 | 987000 | 8.72 |  | 
B15 | 0.0217 | 2.92e-05 | 1.34e+06 | 9.81 |  | 
B16 |  |  |  |  | no binding (tested: Nb titrated from 10 µM) | 
B17 | 40.5 | 0.00125 | 30900 | 2.07 |  | 
B18 |  |  |  |  | no binding (tested: Nb titrated from 10 µM) | 
B19 | 2000 | 0.00204 |  | 2.67 |  | 
B20 | 0.177 | 0.000353 | 2e+06 | 8.05 |  | 
B21 |  |  |  |  | no binding (tested: Nb titrated from 10 µM) | 
B22 |  |  |  |  | no binding (tested: Nb titrated from 10 µM) | 
B23 | 77 | 0.00107 | 13900 | 3.76 |  | 
B24 |  |  |  |  | no binding (tested: Nb titrated from 10 µM) | 
B25 | 17.6 | 0.000462 | 26300 | 5.32 |  | 
B26 |  |  |  |  | no binding (tested: Nb titrated from 10 µM) | 
B27 |  |  |  |  |  | binding result (human serum albumin): no binding (tested: Nb titrated from 10 µM)
B28 | 268 | 0.000809 | 3020 | 1.89 |  | 
